# Assay results published in IntAct's records for PubMed 22995871.
# Target: mare1_mouse Mapre1 (UniProt Q61166)
# Sequence (Q61166 whole entry): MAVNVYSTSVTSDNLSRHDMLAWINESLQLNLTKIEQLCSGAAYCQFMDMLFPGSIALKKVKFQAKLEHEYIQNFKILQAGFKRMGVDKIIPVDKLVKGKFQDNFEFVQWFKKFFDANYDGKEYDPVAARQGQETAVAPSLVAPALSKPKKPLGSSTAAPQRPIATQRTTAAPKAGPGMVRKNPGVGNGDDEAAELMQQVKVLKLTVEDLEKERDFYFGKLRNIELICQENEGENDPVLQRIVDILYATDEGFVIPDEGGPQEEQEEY
row,effect of a mutation on the interaction,Substance
1,disrupting interaction,"Dystonin (Homo sapiens), Q03001 D7250A"
2,disrupting interaction,"Dystonin (Homo sapiens), Q03001 D7248A"
3,disrupting interaction,"Dystonin (Homo sapiens), Q03001 D7246A"
